According to patent US20050043232A1:

T1: myostatin pro peptide (wild type)
T1 sequence: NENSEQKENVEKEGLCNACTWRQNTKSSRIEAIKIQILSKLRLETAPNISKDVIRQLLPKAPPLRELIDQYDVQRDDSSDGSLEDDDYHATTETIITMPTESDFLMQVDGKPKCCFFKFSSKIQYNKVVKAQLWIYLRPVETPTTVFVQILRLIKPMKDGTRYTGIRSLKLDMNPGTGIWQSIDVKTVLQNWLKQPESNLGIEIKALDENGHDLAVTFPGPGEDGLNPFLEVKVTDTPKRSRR

T2: 40-mer R to Q mutant peptide (SEQ ID NO:13)
T2 sequence: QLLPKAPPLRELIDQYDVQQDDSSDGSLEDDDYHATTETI

T3: 40-mer wild type myostatin pro peptide peptide (SEQ ID NO:12)
T3 sequence: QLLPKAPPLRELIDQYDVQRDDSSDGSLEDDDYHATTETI

T4: 20-mer wild type myostatin pro peptide peptide (SEQ ID NO:18)
T4 sequence: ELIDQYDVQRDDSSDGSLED

T5: 30-mer D to A mutant peptide (SEQ ID NO:17)
T5 sequence: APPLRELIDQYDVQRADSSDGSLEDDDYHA

T6: 30-mer wild type myostatin pro peptide peptide (SEQ ID NO:15)
T6 sequence: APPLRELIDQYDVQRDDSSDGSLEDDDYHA

T7: 20-mer R to Q mutant peptide (SEQ ID NO:19)
T7 sequence: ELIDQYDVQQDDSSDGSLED

T8: 40-mer D to A mutant peptide (SEQ ID NO:14)
T8 sequence: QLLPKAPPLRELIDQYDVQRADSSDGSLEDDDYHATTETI

T9: 20-mer D to A mutant peptide (SEQ ID NO:20)
T9 sequence: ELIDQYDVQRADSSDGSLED

T10: 30-mer R to Q mutant peptide (SEQ ID NO:16)
T10 sequence: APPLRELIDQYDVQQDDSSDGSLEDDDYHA

T11: myostatin pro peptide (wild type) (Homo sapiens (Human)) (UniProt O14793)
T11 sequence: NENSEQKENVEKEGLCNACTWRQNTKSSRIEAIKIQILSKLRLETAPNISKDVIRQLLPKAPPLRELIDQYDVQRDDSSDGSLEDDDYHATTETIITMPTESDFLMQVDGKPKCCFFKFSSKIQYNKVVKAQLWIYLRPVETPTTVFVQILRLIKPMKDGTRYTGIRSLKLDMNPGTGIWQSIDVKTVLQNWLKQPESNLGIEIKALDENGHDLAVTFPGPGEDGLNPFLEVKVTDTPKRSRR


What was measured:
[1] = system: T1, myostatin pro peptide (wild type)
[2] = system: T2, 40-mer R to Q mutant peptide (SEQ ID NO:13)
[3] = system: T3, 40-mer wild type myostatin pro peptide peptide (SEQ ID NO:12)
[4] = system: T4, 20-mer wild type myostatin pro peptide peptide (SEQ ID NO:18)
[5] = system: T5, 30-mer D to A mutant peptide (SEQ ID NO:17)
[6] = system: T6, 30-mer wild type myostatin pro peptide peptide (SEQ ID NO:15)
[7] = system: T7, 20-mer R to Q mutant peptide (SEQ ID NO:19)
[8] = system: T8, 40-mer D to A mutant peptide (SEQ ID NO:14)
[9] = system: T9, 20-mer D to A mutant peptide (SEQ ID NO:20)
[10] = system: T10, 30-mer R to Q mutant peptide (SEQ ID NO:16)
[11] = molecular target: T11, myostatin pro peptide (wild type) (Homo sapiens (Human)); assay: cell-based or functional assay

Molecule | partial proteolytic cleavage of pro peptide in the latent complex, western blot (FIG. 3E; 1 µg complex, 250 ng proteinase, 16 hours 37° C.) [1] | proteolytic cleavage of free pro peptide (purified away from the C-terminal dimer) [1] | proteolytic cleavage of pro peptide, SDS-PAGE and western blot (500 ng substrate, 100 ng protease, overnight 37° C.; free pro peptide and latent complex) [1] | cleavage of synthetic peptide by conditioned medium containing TLL-2, C18 HPLC and mass spectrometry [2] | cleavage of synthetic peptide by conditioned medium containing TLL-2, C18 HPLC and mass spectrometry [3] | cleavage of synthetic peptide by conditioned medium containing TLL-2, C18 HPLC and mass spectrometry [4] | cleavage of synthetic peptide by conditioned medium containing TLL-2, C18 HPLC and mass spectrometry [5] | cleavage of synthetic peptide by conditioned medium containing TLL-2, C18 HPLC and mass spectrometry [6] | cleavage of synthetic peptide by conditioned medium containing TLL-2, C18 HPLC and mass spectrometry [7] | cleavage of synthetic peptide by conditioned medium containing TLL-2, C18 HPLC and mass spectrometry [8] | cleavage of synthetic peptide by conditioned medium containing TLL-2, C18 HPLC and mass spectrometry [9] | cleavage of synthetic peptide by conditioned medium containing TLL-2, C18 HPLC and mass spectrometry [10] | proteolytic cleavage of pro peptide in the purified latent complex, SDS-PAGE and western blot (FIG. 3D) [1] | fraction of proteolytically-cleaved myostatin complex active in the luciferase reporter assay (against a standard curve of C-terminal dimer) [11] [%]
mammalian Tolloid (mTLD) | mTLD was consistently less active than the other three | All four of these proteinases also cleaved pro peptide that had been purified away from the C-terminal dimer | each of the proteases cleaved the pro peptide whether it was in a purified form or in a complex with the myostatin C-terminal dimer | – | – | – | – | – | – | – | – | – | – | –
mammalian Tolloid-like-2 (mTLL-2) (enzyme, UniProt Q9WVM6 147-1012, looked up, species assumed) Tolloid-like protein 2: ATTSRTERIWPGGVIPYVIGGNFTGTQRAIFKQAMRHWEKHTCVTFVERTDEESFIVFSYRTCGCCSYVGRRGGGPQAISIGKNCDKFGIVAHELGHVVGFWHEHTRPDRDQHVTIIRENIQPGQEYNFLKMEAGEVSSLGETYDFDSIMHYARNTFSRGVFLDTILPRRDDNGVRPTIGQRVRLSQGDIAQARKLYKCPACGETLQDTTGNFSAPGFPNGYPSYSHCVWRISVTPGEKIILNFTSMDLFKSRLCWYDYVEIRDGYWRKAPLLGRFCGDKIPESLVSSDSRLWVEFRSSSSSLGKGFFAVYEAMCGGDITKDAGQIQSPNYPDDYRPSKECVWRITVPDGFHVGLTFQSFEIERHDSCAYDYLEIRDGPTEDSTLIGHFCGYEKPEAVKSSANRLWVKFVSDGSINKAGFAANFFKEVDECSWPDHGGCEQRCVNTLGSYTCACDPGYELAADKKTCEVACGGFITKLNGTITSPGWPKEYPTNKNCVWQVVAPVQYRISLQFEAFELEGNDVCKYDFVEVRSGLSPDAKLHGKFCGSETPEVITSQSNNMRVEFKSDNTVSKRGFRAHFFSDKDECAKDNGGCQQECVNTFGSYLCRCRNGYRLHENGHDCKEAGCAYKISSAEGTLMSPNWPDKYPSRKECTWNISSTAGHRVKITFSEFEIEQHQECAYDHLELYDGTDSLAPILGRFCGSKKPDPVVATGSSLFLRFYSDASVQRKGFQAVHSTECGGRLKAEVQTKELYSHAQFGDNNYPSQARCDWVIVAEDGYGVELIFRTFEVEEEADCGYDFMEAYDGYDSSAPRLGRFCGSGPLEEIYSAGDSLMIRFHTDDTINKKGFHARYTSTKFQDALHMRK | Three of the proteinases, BMP-1, mTLL-1, and mTLL-2, were approximately equally effective in cleaving the pro peptide | All four of these proteinases also cleaved pro peptide that had been purified away from the C-terminal dimer | each of the proteases cleaved the pro peptide whether it was in a purified form or in a complex with the myostatin C-terminal dimer | The 40-mer, 30-mer, and 20-mer wild type and R→Q mutant peptides were cleaved by conditioned media containing TLL-2 | The 40-mer, 30-mer, and 20-mer wild type and R→Q mutant peptides were cleaved by conditioned media containing TLL-2 | The 40-mer, 30-mer, and 20-mer wild type and R→Q mutant peptides were cleaved by conditioned media containing TLL-2 | the peptides containing the D→A mutation at the P1′ position were not cleaved | The 40-mer, 30-mer, and 20-mer wild type and R→Q mutant peptides were cleaved by conditioned media containing TLL-2 | The 40-mer, 30-mer, and 20-mer wild type and R→Q mutant peptides were cleaved by conditioned media containing TLL-2 | the peptides containing the D→A mutation at the P1′ position were not cleaved | the peptides containing the D→A mutation at the P1′ position were not cleaved | The 40-mer, 30-mer, and 20-mer wild type and R→Q mutant peptides were cleaved by conditioned media containing TLL-2 | – | –
bone morphogenic protein-1 (BMP-1) (enzyme, UniProt P13497 121-986, looked up, species assumed) Bone morphogenetic protein 1: AATSRPERVWPDGVIPFVIGGNFTGSQRAVFRQAMRHWEKHTCVTFLERTDEDSYIVFTYRPCGCCSYVGRRGGGPQAISIGKNCDKFGIVVHELGHVVGFWHEHTRPDRDRHVSIVRENIQPGQEYNFLKMEPQEVESLGETYDFDSIMHYARNTFSRGIFLDTIVPKYEVNGVKPPIGQRTRLSKGDIAQARKLYKCPACGETLQDSTGNFSSPEYPNGYSAHMHCVWRISVTPGEKIILNFTSLDLYRSRLCWYDYVEVRDGFWRKAPLRGRFCGSKLPEPIVSTDSRLWVEFRSSSNWVGKGFFAVYEAICGGDVKKDYGHIQSPNYPDDYRPSKVCIWRIQVSEGFHVGLTFQSFEIERHDSCAYDYLEVRDGHSESSTLIGRYCGYEKPDDIKSTSSRLWLKFVSDGSINKAGFAVNFFKEVDECSRPNRGGCEQRCLNTLGSYKCSCDPGYELAPDKRRCEAACGGFLTKLNGSITSPGWPKEYPPNKNCIWQLVAPTQYRISLQFDFFETEGNDVCKYDFVEVRSGLTADSKLHGKFCGSEKPEVITSQYNNMRVEFKSDNTVSKKGFKAHFFSDKDECSKDNGGCQQDCVNTFGSYECQCRSGFVLHDNKHDCKEAGCDHKVTSTSGTITSPNWPDKYPSKKECTWAISSTPGHRVKLTFMEMDIESQPECAYDHLEVFDGRDAKAPVLGRFCGSKKPEPVLATGSRMFLRFYSDNSVQRKGFQASHATECGGQVRADVKTKDLYSHAQFGDNNYPGGVDCEWVIVAEEGYGVELVFQTFEVEEETDCGYDYMELFDGYDSTAPRLGRYCGSGPPEEVYSAGDSVLVKFHSDDTITKKGFHLRYTSTKFQDTLHSRK | Three of the proteinases, BMP-1, mTLL-1, and mTLL-2, were approximately equally effective in cleaving the pro peptide | All four of these proteinases also cleaved pro peptide that had been purified away from the C-terminal dimer | each of the proteases cleaved the pro peptide whether it was in a purified form or in a complex with the myostatin C-terminal dimer | – | – | – | – | – | – | – | – | – | incubation of the purified latent complex with purified BMP-1 resulted in complete cleavage of the pro peptide to generate a single product | –
mammalian Tolloid-like-1 (mTLL-1) (enzyme, UniProt Q62381 148-1013, looked up, species assumed) Tolloid-like protein 1: AATSRTERIWPGGVIPYVIGGNFTGSQRAMFKQAMRHWEKHTCVTFTERSDEESYIVFTYRPCGCCSYVGRRGNGPQAISIGKNCDKFGIVVHELGHVIGFWHEHTRPDRDNHVTIIRENIQPGQEYNFLKMEPGEVNSLGERYDFDSIMHYARNTFSRGMFLDTILPSRDDNGIRPAIGQRTRLSKGDIAQARKLYRCPACGETLQESSGNLSSPGFPNGYPSYTHCIWRVSVTPGEKIVLNFTTMDLYKSSLCWYDYIEVRDGYWRKSPLLGRFCGDKVAGVLTSTDSRMWIEFRSSSNWVGKGFAAVYEAICGGEIRKNEGQIQSPNYPDDYRPMKECVWKIMVSEGYHVGLTFQAFEIERHDSCAYDHLEVRDGASENSPLIGRFCGYDKPEDIRSTSNTLWMKFVSDGTVNKAGFAANFFKEEDECAKPDRGGCEQRCLNTLGSYQCACEPGYELGPDRRSCEAACGGLLTKLNGTITTPGWPKEYPPNKNCVWQVIAPSQYRISVKFEFFELEGNEVCKYDYVEIWSGPSSESKLHGKFCGADIPEVMTSHFNNMRIEFKSDNTVSKKGFKAHFFSDKDECSKDNGGCQHECVNTMGSYTCQCRNGFVLHENKHDCKEAECEQKIHSPSGLITSPNWPDKYPSRKECTWVISAIPGHRITLAFNEFEVEQHQECAYDHLEIFDGETEKSPILGRLCGSKIPDPLMATGNEMFIRFISDASVQRKGFQATHSTECGGRLKAESKPRDLYSHAQFGDNNYPGQLDCEWLLVSERGSRLELSFQTFEVEEEADCGYDYVEVFDGLSSKAVGLGRFCGSGPPEEIYSIGDVALIHFHTDDTINKKGFYIRYKSIRYPETMHAKN | Three of the proteinases, BMP-1, mTLL-1, and mTLL-2, were approximately equally effective in cleaving the pro peptide | All four of these proteinases also cleaved pro peptide that had been purified away from the C-terminal dimer | each of the proteases cleaved the pro peptide whether it was in a purified form or in a complex with the myostatin C-terminal dimer | – | – | – | – | – | – | – | – | – | – | > 50
